Source: patent US11780907B2, “Human antibodies to influenza hemagglutinin” (Regeneron Pharmaceuticals, Inc., priority 2018, dated 2023)
“Also recorded” adds a separate entry of the source. Where two headings read alike, the source gives them in different places.

Columns and labels:
[1] = system: A/Aichi/02/1968-X31 (H3N2); design: species or system BALB/c mice; details: mouse, in vivo
[2] = system: A/Victoria/316/2011 (H3N2); type: cell-based, influenza A virus
[3] = biological target: A/Shanghai/01/2013 (H7) HA foldon protein; type: binding, influenza A virus; details: 37° C.
group 1 strains (HA) = type: binding, influenza A virus
[4] = system: A/Aichi/02/1968-PR8-X31(H3N2)-infected MDCKs; type: cell-based, canine
[5] = system: A/Aichi/02/1968-X31 (H3N2); design: species or system BALB/c mice; details: mouse, in vivo, iv, 15 mg/kg
[6] = biological target: A/Hiroshima/52/2005 (H3) HA foldon protein; type: binding, influenza A virus
[7] = system: A/Aichi/02/1968-PR8-X31 (H3N2); type: cell-based, influenza A virus; details: read-out: Neutralization activity IC50
[8] = system: A/Philippines/01/1982 (H3N2); type: cell-based, influenza A virus; details: read-out: Neutralization activity IC50
[9] = system: A/Shanghai/01/2013-PR8 (H7N9); type: cell-based, influenza A virus; details: read-out: Neutralization activity IC50

Row | Molecule | survival [1] [%] | effect when dosed in combination with oseltamivir [1] | survival ([1]; 7 mg/kg) [%] | survival ([1]; 15 mg/kg) [%] | lowest concentration of mAb where no RBC hemagglutination was detected [2] [nM] | KD [3] | binding to group 1 strains (group 1 strains (HA)) | maximum lysis (percent specific lysis) [4] [%] | survival [5] | Kd [6] [nM] | IC50 [7] [nM] | IC50 [8] [nM] | EC50 ([4]; read-out: CDC EC50) [nM] | IC50 [9] [µM]
1 | CCOC(=O)C1=C[C@@H](OC(CC)CC)[C@H](NC(C)=O)[C@@H](N)C1 [oseltamivir, reference compound] | 80 |  |  |  |  |  |  |  |  |  |  |  |  | 
2 | H1H14611N2: fully human anti-influenza A group 2 HA monoclonal antibody, HCVR/LCVR SEQ ID NOs: 2/10 (antibody, V domains shown) VH: EVQLVESGGGLVKPGGSLRLSCAASGFTFSGFSMNWVRQVPGKGLEWVSSISTSGNYMYYADSVKGRFTISRDNAKKSFSLQMNSLRAEDSAIYYCARGGGYNWNLFDYWGQGSLVTVSS VL: EIVLTQSPGTLSLSPGERATLSCRASQSLNSNYLAWYQQKPGQAPRLLIYGASSRATGIPDRFSGSGSGTDFTLTITRLESEDFAVYYCQQYGNSPLTFGGGTKVEIK |  | additive protective effect; also recorded: additive efficacy | 80 | 100 | 41.7 | IC^§ | did not bind | 78.3 | One hundred percent survival; also recorded: survived; also recorded: complete protection | 8.22 |  |  |  | 
3 | H1H14612N2: fully human anti-influenza A group 2 HA monoclonal antibody, HCVR/LCVR SEQ ID NOs: 18/26 (antibody, V domains shown) VH: EVQLVESGGGLVKPGGSLRLSCAASGFSFSGFSMNWVRQAPGKGLEWVSSISTSGNYMYYADSVKGRFTISRDNAKKSFSLQMNSLRAEDSAIYYCARGGGYNWNLFDYWGQGSLVTVSS VL: EIVLTQSPGTLSLSPGERATLSCRASQSLNSNYLAWYQQKPGQAPRLLIYGASSRATGIPDRFSGSGSGADFTLTISRLESEDFAVYYCQQYGNSPLTFGGGTKVEIK |  |  |  |  | 166.7 |  |  | 86.3 | One hundred percent survival; also recorded: survived; also recorded: complete protection |  | 5.7 | 37.6 | 126 | > 6.67
